According to article PMC11081419:

Molecular target: CCL18 (human) (UniProt P55774)
Experiment: SPR
Settings: domain or fragment

CCL18 (human), sequence (P55774 21-89): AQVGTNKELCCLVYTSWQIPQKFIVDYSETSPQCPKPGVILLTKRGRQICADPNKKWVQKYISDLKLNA
EVA‐ACA1001(ΔN), sequence (A0A023FFD0 29-136, stated change not applied): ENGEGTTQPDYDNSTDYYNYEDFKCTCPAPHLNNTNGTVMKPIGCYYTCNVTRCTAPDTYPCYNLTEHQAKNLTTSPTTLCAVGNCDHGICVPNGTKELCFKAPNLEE

EVA‐ACA1001(ΔN) (from UniProt A0A023FFD0)
Kd: < 100 pM
